The record followed here is the supplement of paper PMC7125110.

The term kcat denotes the number of substrate molecules converted per active site and unit of time at saturation. Broadly, the KM is the substrate concentration at which the rate is half of its maximum.

± gives the standard error. For part of these data: Fewer inactive variants are shown than the library holds. A value given as a limit tells only on which side of the number the result lay.

B1: glmS ribozyme (parent)
chain: AUAAAAGCGCCAGAACUACAGAAAUGUAGUUGACGAGGAGGAGGUUUAUCGAAUUUUCGGCGGAUGCCUCCAAA

Common to all, as to details: with glucosamine-6-phosphate
The variants in data set [1] derive from B1. Kind of data set: kcat; higher = faster cleavage; RNA array. Summed up: (§1)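 Barcoded ribozyme variants on sequenced MiSeq chips were transcribed in situ by E. coli RNA polymerase and followed at 37 °C through a hybridised Cy3 probe. Glucosamine-6-phosphate at 40 μM to 10 mM in HEPES/KCl/Mg(OAc)2 buffer was flowed in, and tiles were imaged over ~14 h. Signals were normalised to baseline and to non-cleaving reference variants, and per-tile medians were fit to one- or two-exponential decays to give kobs. Weighted Michaelis–Menten fits across concentrations gave kcat and KM.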

The variants in data set [2] derive from B1. Kind of data set: self-cleavage kobs at 160 uM GlcN6P; higher = faster cleavage; RNA array. Summed up:
as §1

Data set [3] covers variants of B1. Kind of data set: KM; higher = weaker cofactor use; RNA array. Summed up:
as §1

In data set [4] the parent is B1. In words: self-cleavage kobs at 40 uM GlcN6P; higher = faster cleavage; RNA array. In outline: as §1
The variants in data set [5] derive from B1. In words: self-cleavage kobs at 640 uM GlcN6P; higher = faster cleavage; RNA array. Summed up: as §1
Variants of B1 are the subject of data set [6]. In words: self-cleavage kobs at 2500 uM GlcN6P; higher = faster cleavage; RNA array. In outline:
as §1

Variants of B1 are the subject of data set [7]. In words: self-cleavage kobs at 10000 uM GlcN6P; higher = faster cleavage; RNA array. Summed up: as §1

C50G G66A: the kcat with glucosamine-6-phosphate [1] is 4.08e-05 ± 1e-05 s⁻¹. Besides, the “self-cleavage kobs at 160 uM GlcN6P” value with glucosamine-6-phosphate [2] was determined as 5.66e-05 ± 2.2e-05 s⁻¹.

As to U47A U65G, the kcat with glucosamine-6-phosphate [1] came out at 0.00507 ± 0.0003 s⁻¹. Moreover, the KM in the data set with glucosamine-6-phosphate [3] turned out to be 3540 ± 320 µM. Also, the “self-cleavage kobs at 40 uM GlcN6P” value with glucosamine-6-phosphate [4] is 5.62e-05 ± 9.4e-06 s⁻¹. The “self-cleavage kobs at 160 uM GlcN6P” value with glucosamine-6-phosphate [2] is 0.000236 ± 6.6e-05 s⁻¹. Moreover, the “self-cleavage kobs at 640 uM GlcN6P” value with glucosamine-6-phosphate [5] amounted to 0.000735 ± 0.00012 s⁻¹. Also, the “self-cleavage kobs at 2500 uM GlcN6P” value with glucosamine-6-phosphate [6] stood at 0.00229 ± 0.00035 s⁻¹. Also, the “self-cleavage kobs at 10000 uM GlcN6P” value with glucosamine-6-phosphate [7] turned out to be 0.00369 ± 0.00037 s⁻¹.

On to U30G A48G, for which, in the data set with glucosamine-6-phosphate [1], the kcat was below 1e-05 s⁻¹. Moreover, in the data set with glucosamine-6-phosphate [4], the “self-cleavage kobs at 40 uM GlcN6P” value is below 1e-05 s⁻¹. Further, the “self-cleavage kobs at 160 uM GlcN6P” value with glucosamine-6-phosphate [2] is below 1e-05 s⁻¹.

With A39G C58G, in the data set with glucosamine-6-phosphate [1], the kcat turned out to be 0.000195 ± 2.9e-05 s⁻¹. In the data set with glucosamine-6-phosphate [3], the Michaelis constant (KM) is 3340 ± 1100 µM. For the same variant, the “self-cleavage kobs at 640 uM GlcN6P” value with glucosamine-6-phosphate [5] is 3.89e-05 ± 1.2e-05 s⁻¹. Moreover, in the data set with glucosamine-6-phosphate [6], the “self-cleavage kobs at 2500 uM GlcN6P” value is 7.24e-05 ± 1.7e-05 s⁻¹. For the same variant, the “self-cleavage kobs at 10000 uM GlcN6P” value in the data set with glucosamine-6-phosphate [7] was found to be 0.000151 ± 2.3e-05 s⁻¹.

For the variant A14U U65G, in the data set with glucosamine-6-phosphate [1], the kcat amounted to 0.00172 ± 0.00014 s⁻¹. In the data set with glucosamine-6-phosphate [3], the KM was found to be 2120 ± 250 µM. The “self-cleavage kobs at 40 uM GlcN6P” value with glucosamine-6-phosphate [4] came to 2.77e-05 ± 8e-06 s⁻¹. Further, in the data set with glucosamine-6-phosphate [2], the “self-cleavage kobs at 160 uM GlcN6P” value is 0.000118 ± 1.7e-05 s⁻¹. Also, in the data set with glucosamine-6-phosphate [5], the “self-cleavage kobs at 640 uM GlcN6P” value came out at 0.000431 ± 4.8e-05 s⁻¹. Also, in the data set with glucosamine-6-phosphate [6], the “self-cleavage kobs at 2500 uM GlcN6P” value was determined as 0.000875 ± 0.00012 s⁻¹. Further, in the data set with glucosamine-6-phosphate [7], the “self-cleavage kobs at 10000 uM GlcN6P” value stood at 0.00144 ± 0.00018 s⁻¹.

On to G43C A53G C68U, for which the kcat with glucosamine-6-phosphate [1] is 0.00152 ± 0.00074 s⁻¹. The “self-cleavage kobs at 40 uM GlcN6P” value with glucosamine-6-phosphate [4] was 5.01e-05 ± 1.4e-05 s⁻¹. The “self-cleavage kobs at 160 uM GlcN6P” value with glucosamine-6-phosphate [2] came out at 0.000102 ± 2.7e-05 s⁻¹. Moreover, the “self-cleavage kobs at 640 uM GlcN6P” value in the data set with glucosamine-6-phosphate [5] was determined as 0.000435 ± 0.00011 s⁻¹. Besides, the “self-cleavage kobs at 2500 uM GlcN6P” value in the data set with glucosamine-6-phosphate [6] turned out to be 0.000879 ± 0.00022 s⁻¹.

On to U57G G59U U65G C68U, for which, in the data set with glucosamine-6-phosphate [1], the kcat was 1.85e-05 ± 4.8e-06 s⁻¹.

Regarding G9A C34G C67A, the kcat in the data set with glucosamine-6-phosphate [1] was below 1e-05 s⁻¹. Besides, the “self-cleavage kobs at 2500 uM GlcN6P” value with glucosamine-6-phosphate [6] is below 1e-05 s⁻¹.

A39G U57C: the kcat with glucosamine-6-phosphate [1] was 0.000566 ± 0.0002 s⁻¹. The “self-cleavage kobs at 40 uM GlcN6P” value with glucosamine-6-phosphate [4] was below 1e-05 s⁻¹. Further, the “self-cleavage kobs at 640 uM GlcN6P” value with glucosamine-6-phosphate [5] came to 5.87e-05 ± 1.5e-05 s⁻¹. For the same variant, in the data set with glucosamine-6-phosphate [6], the “self-cleavage kobs at 2500 uM GlcN6P” value worked out at 0.00013 ± 2.3e-05 s⁻¹. Moreover, in the data set with glucosamine-6-phosphate [7], the “self-cleavage kobs at 10000 uM GlcN6P” value was 0.000351 ± 6.4e-05 s⁻¹.

A15G U54C: the kcat with glucosamine-6-phosphate [1] came out at 0.0142 ± 0.0059 s⁻¹. The “self-cleavage kobs at 40 uM GlcN6P” value with glucosamine-6-phosphate [4] worked out at 0.000969 ± 0.00018 s⁻¹. Moreover, the “self-cleavage kobs at 160 uM GlcN6P” value with glucosamine-6-phosphate [2] is 0.0021 ± 0.00098 s⁻¹. In addition, in the data set with glucosamine-6-phosphate [7], the “self-cleavage kobs at 10000 uM GlcN6P” value stood at 0.0181 ± 0.0046 s⁻¹.

As for A15G G44U, the kcat with glucosamine-6-phosphate [1] amounted to 0.00046 ± 2.8e-05 s⁻¹. Further, in the data set with glucosamine-6-phosphate [3], the KM turned out to be 1550 ± 270 µM. The “self-cleavage kobs at 160 uM GlcN6P” value with glucosamine-6-phosphate [2] amounted to 3.52e-05 ± 1.5e-05 s⁻¹. In addition, the “self-cleavage kobs at 640 uM GlcN6P” value with glucosamine-6-phosphate [5] amounted to 0.000151 ± 2.5e-05 s⁻¹. Besides, the “self-cleavage kobs at 2500 uM GlcN6P” value with glucosamine-6-phosphate [6] is 0.000252 ± 6.3e-05 s⁻¹. In the data set with glucosamine-6-phosphate [7], the “self-cleavage kobs at 10000 uM GlcN6P” value stood at 0.0004 ± 3.1e-05 s⁻¹.

As for A12U G43C, the kcat with glucosamine-6-phosphate [1] came to 1.4e-05 ± 1.4e-06 s⁻¹. Besides, the KM in the data set with glucosamine-6-phosphate [3] turned out to be 6950 ± 1500 µM. Besides, the “self-cleavage kobs at 160 uM GlcN6P” value with glucosamine-6-phosphate [2] is below 1e-05 s⁻¹. In the data set with glucosamine-6-phosphate [5], the “self-cleavage kobs at 640 uM GlcN6P” value is below 1e-05 s⁻¹.

For the variant G40A A42G, in the data set with glucosamine-6-phosphate [1], the kcat came to 0.00697 ± 0.0023 s⁻¹. For the same variant, the KM with glucosamine-6-phosphate [3] was found to be 1900 ± 820 µM. The “self-cleavage kobs at 40 uM GlcN6P” value with glucosamine-6-phosphate [4] was 0.000182 ± 2.4e-05 s⁻¹. Moreover, the “self-cleavage kobs at 160 uM GlcN6P” value in the data set with glucosamine-6-phosphate [2] came to 0.00046 ± 9.7e-05 s⁻¹. In addition, the “self-cleavage kobs at 640 uM GlcN6P” value with glucosamine-6-phosphate [5] turned out to be 0.00157 ± 0.00024 s⁻¹. In addition, the “self-cleavage kobs at 2500 uM GlcN6P” value with glucosamine-6-phosphate [6] is 0.00363 ± 0.00075 s⁻¹. The “self-cleavage kobs at 10000 uM GlcN6P” value with glucosamine-6-phosphate [7] was 0.00783 ± 0.0018 s⁻¹.

For C11A G66U, in the data set with glucosamine-6-phosphate [1], the kcat was below 1e-05 s⁻¹. In the data set with glucosamine-6-phosphate [3], the KM came to 58.7 ± 26 µM. The “self-cleavage kobs at 40 uM GlcN6P” value with glucosamine-6-phosphate [4] is below 1e-05 s⁻¹. In addition, in the data set with glucosamine-6-phosphate [5], the “self-cleavage kobs at 640 uM GlcN6P” value was below 1e-05 s⁻¹. Besides, the “self-cleavage kobs at 2500 uM GlcN6P” value in the data set with glucosamine-6-phosphate [6] is below 1e-05 s⁻¹.

With G32A C67U C71G, the catalytic constant (kcat) in the data set with glucosamine-6-phosphate [1] is 8.98e-05 ± 2.5e-05 s⁻¹. Further, the “self-cleavage kobs at 40 uM GlcN6P” value with glucosamine-6-phosphate [4] is 5.63e-05 ± 2.5e-05 s⁻¹. Further, the “self-cleavage kobs at 160 uM GlcN6P” value in the data set with glucosamine-6-phosphate [2] came to 9.79e-05 ± 2.3e-05 s⁻¹. Further, in the data set with glucosamine-6-phosphate [5], the “self-cleavage kobs at 640 uM GlcN6P” value was found to be 0.000178 ± 4.1e-05 s⁻¹. In addition, in the data set with glucosamine-6-phosphate [6], the “self-cleavage kobs at 2500 uM GlcN6P” value was 9.42e-05 ± 2.9e-05 s⁻¹. For the same variant, the “self-cleavage kobs at 10000 uM GlcN6P” value in the data set with glucosamine-6-phosphate [7] was determined as 5.54e-05 ± 2.2e-05 s⁻¹.

As for G62C C70G C71A, the kcat with glucosamine-6-phosphate [1] amounted to 3.99e-05 ± 1.8e-05 s⁻¹. Also, the “self-cleavage kobs at 640 uM GlcN6P” value with glucosamine-6-phosphate [5] worked out at 6.26e-05 ± 2.7e-05 s⁻¹. Besides, the “self-cleavage kobs at 2500 uM GlcN6P” value with glucosamine-6-phosphate [6] stood at 5.21e-05 ± 2.2e-05 s⁻¹.
